In patent US20220073617A1 (Five Prime, published 2022):
“And” between values parts separate entries of the source, which are not always exact repeats. Equal entries are not always repeated.

Tests used:
[1] = molecular target: T1, monovalent hVISTA-ECD (human VISTA extracellular domain with His tail) (human, UniProt Q9H7M9 33-193); assay: SPR
T1 construct: analyte flowed over captured antibody; also called huVISTA-His
Procedure: (§1) Binding of several preparations of each of the '029 progeny clones and of the parent '029 antibodies, formatted as IgG1.3 antibodies, to human VISTA at pH 6.0 and 7.4 was measured by Surface plasmon resonance (SPR). SPR analysis was performed to measure koff and KD binding affinity measurements for VISTA Abs at acidic and neutral pHs using a Biacore® T100 instrument (GE Healthcare). Protein A (ThermoFisher Scientific catalog #21181) was diluted to 20 ug/ml in 10 mM sodium acetate pH 4.5 and immobilized onto flow cells of a CM5 biosensor following the manufacturer's amine coupling protocol (GE Healthcare), targeting 2,000 RU immobilization density of Protein A per flow cell. SPR experiments were conducted at 37° C. using PBST (137 mM sodium chloride, 2.7 mM potassium chloride, 10 mM phosphate buffer, 0.05% Tween® 20) running buffer at pH 7.4 and 6.0. Antibodies were diluted to 25 nM in PBST pH 7.4, and were captured across active biosensor flow cells at 5 ul/min for 60 seconds. […] Two 15 second injections of 10 mM glycine pH 1.5 were used to regenerate the Protein A capture surface between assay cycles. Rate constants ka (kₒₙ) and kd (koff) were derived from reference flow cell and 0 nM blank-subtracted sensorgrams, and were fit to a 1:1 binding model in Biacore® T200 Evaluation Software v.2.0. The affinity constant, KD was calculated as the ratio of rate constants koff/kₒₙ for each VISTA antibody.

[2] = molecular target: T1, monovalent hVISTA-ECD (human VISTA …); assay: SPR, pH 6.0
Procedure: as §1, with “antibody. […]” for “antibody.”

[3] = molecular target: T1, monovalent hVISTA-ECD (human VISTA …); assay: SPR, pH 7.4
Procedure: as §1

[4] = molecular target: T1, monovalent hVISTA-ECD (human VISTA …); assay: SPR, pH 7.4; remark: listed apart in the source
Procedure: as §1, with “antibody. […]” for “antibody.”

[5] = molecular target: T1, monovalent hVISTA-ECD (human VISTA …); assay: SPR, pH 6.0; remark: listed apart in the source
Procedure: as §1

[6] = molecular target: T1, monovalent hVISTA-ECD (human VISTA …); assay: SPR; remark: listed apart in the source
Procedure: as §1, with “antibody. […]” for “antibody.”

T1 sequence (Q9H7M9 other isoform, or with tags, fused parts or gaps limits assumed): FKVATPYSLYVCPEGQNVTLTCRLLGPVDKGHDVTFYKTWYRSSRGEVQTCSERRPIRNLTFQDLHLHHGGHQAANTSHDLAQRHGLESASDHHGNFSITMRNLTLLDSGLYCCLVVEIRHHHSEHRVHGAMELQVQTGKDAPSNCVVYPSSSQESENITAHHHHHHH

| Binder | pH 6.0/7.4 KD [1] | pH 6.0/7.4 kd [1] | Kd [2] | koff [2] | kon [2] | Kd [3] | kd improvement vs parent [3] | koff [3] | kon [3] | Kd [4] | koff [4] | kon [4] | Kd [5] | kd improvement vs parent [5] | koff [5] | kon [5] | KD ratio (pH 7.4/pH 6.0) [6] |
| --- | --- | --- | --- | --- | --- | --- | --- | --- | --- | --- | --- | --- | --- | --- | --- | --- | --- |
| P1-063001 (41F11_LC_Mutant: V29D/A64G/R91T) (antibody, V domains shown, also called P1-063001-5; P1-063001-6) VH: QVQLVESGGGLVKPGGSLRLSCAASGFTFSDYYMSWIRQAPGKGLEWVSYISNSGSPIYYADSVKGRFTISRDNAKNSLYLQMNSLRAEDTAVYYCARDLPGWYFDLWGRGTLVTVSS VL: EIVLTQSPATLSLSPGERATLSCRASQSDSSYLAWYQQKPGQAPRLLIYDASNRATGIPARFSGSGSGTDFTLTISSLEPEDFAVYYCQQTNNWPRTFGQGTKVEIK | 2.7 | 10.2 | 0.644 nM and 0.751 nM | 0.00168 s⁻¹ and 0.00171 s⁻¹ | 2.61e+06 M⁻¹ s⁻¹ and 2.28e+06 M⁻¹ s⁻¹ | 0.38 nM | 6.8 fold | 0.00013 s⁻¹ | 340000 M⁻¹ s⁻¹ | 0.665 nM and 0.737 nM | 0.00013 s⁻¹ and 0.00012 s⁻¹ | 195000 M⁻¹ s⁻¹ and 163000 M⁻¹ s⁻¹ | 1 nM | 81.7 fold | 0.0013 s⁻¹ | 1.3e+06 M⁻¹ s⁻¹ |  |
| P1-065064 (41F11_LC_Mutant: V29D/A64G/R91T) (antibody, V domains shown, Same printed description as P1-063001 under another ID; also called P1-065064-1) VH: QVQLVESGGGLVKPGGSLRLSCAASGFTFSDYYMSWIRQAPGKGLEWVSYISNSGSPIYYADSVKGRFTISRDNAKNSLYLQMNSLRAEDTAVYYCARDLPGWYFDLWGRGTLVTVSS VL: EIVLTQSPATLSLSPGERATLSCRASQSDSSYLAWYQQKPGQAPRLLIYDASNRATGIPARFSGSGSGTDFTLTISSLEPEDFAVYYCQQTNNWPRTFGQGTKVEIK | 3 | 11.2 |  |  |  | 0.36 nM | 7.4 fold | 0.00012 s⁻¹ | 330000 M⁻¹ s⁻¹ |  |  |  | 1.1 nM | 80.5 fold | 0.0013 s⁻¹ | 1.3e+06 M⁻¹ s⁻¹ |  |
| P1-063125 (41F11_HC_Mutant: T28P/Y50W/S55E/Y100E) (antibody, V domains shown, Kabat positions; also called P1-063125-5) VH: QVQLVESGGGLVKPGGSLRLSCAASGFPFSDYYMSWIRQAPGKGLEWVSWISNSGEPIYYADSVKGRFTISRDNAKNSLYLQMNSLRAEDTAVYYCARDLPGWEFDLWGRGTLVTVSS VL: EIVLTQSPATLSLSPGERATLSCRASQSVSSYLAWYQQKPGQAPRLLIYDASNRATGIPARFSASGSGTDFTLTISSLEPEDFAVYYCQQRNNWPRTFGQGTKVEIK | 0.9 | 3.9 | 0.356 nM and 0.435 nM | 0.00124 s⁻¹ and 0.0012 s⁻¹ | 3.47e+06 M⁻¹ s⁻¹ and 2.77e+06 M⁻¹ s⁻¹ | 0.27 nM | 4.3 fold | 0.0002 s⁻¹ | 770000 M⁻¹ s⁻¹ | 0.365 nM and 0.32 nM | 0.000178 s⁻¹ and 0.000141 s⁻¹ | 488000 M⁻¹ s⁻¹ and 441000 M⁻¹ s⁻¹ | 0.25 nM | 136 fold | 0.00079 s⁻¹ | 3.1e+06 M⁻¹ s⁻¹ |  |
| P1-065316 (41F11_VH_A60H VK A64G) (antibody, V domains shown, Kabat positions; also called P1-065316-1) VH: QVQLVESGGGLVKPGGSLRLSCAASGFTFSDYYMSWIRQAPGKGLEWVSYISNSGSPIYYHDSVKGRFTISRDNAKNSLYLQMNSLRAEDTAVYYCARDLPGWYFDLWGRGTLVTVSS VL: EIVLTQSPATLSLSPGERATLSCRASQSVSSYLAWYQQKPGQAPRLLIYDASNRATGIPARFSGSGSGTDFTLTISSLEPEDFAVYYCQQRNNWPRTFGQGTKVEIK |  |  | 14.5 nM | 0.0561 s⁻¹ | 3.86e+06 M⁻¹ s⁻¹ |  |  |  |  | 4.12 nM | 0.000995 s⁻¹ | 242000 M⁻¹ s⁻¹ |  |  |  |  | 0.28 |
| P1-065318 (41F11_VH_L96E VK A64G) (antibody, V domains shown, Kabat positions; also called P1-065318-1) VH: QVQLVESGGGLVKPGGSLRLSCAASGFTFSDYYMSWIRQAPGKGLEWVSYISNSGSPIYYADSVKGRFTISRDNAKNSLYLQMNSLRAEDTAVYYCARDEPGWYFDLWGRGTLVTVSS VL: EIVLTQSPATLSLSPGERATLSCRASQSVSSYLAWYQQKPGQAPRLLIYDASNRATGIPARFSGSGSGTDFTLTISSLEPEDFAVYYCQQRNNWPRTFGQGTKVEIK |  |  | 7.84 nM | 0.0154 s⁻¹ | 1.96e+06 M⁻¹ s⁻¹ |  |  |  |  | 38.5 nM | 0.0042 s⁻¹ | 109000 M⁻¹ s⁻¹ |  |  |  |  | 4.91 |
| P1-063153 (41F11_HC_mutant: D31E/Y50W/S55E/Y100E) (antibody, V domains shown, Kabat positions; also called P1-063153-5) VH: QVQLVESGGGLVKPGGSLRLSCAASGFTFSEYYMSWIRQAPGKGLEWVSWISNSGEPIYYADSVKGRFTISRDNAKNSLYLQMNSLRAEDTAVYYCARDLPGWEFDLWGRGTLVTVSS VL: EIVLTQSPATLSLSPGERATLSCRASQSVSSYLAWYQQKPGQAPRLLIYDASNRATGIPARFSASGSGTDFTLTISSLEPEDFAVYYCQQRNNWPRTFGQGTKVEIK | 0.8 | 3.9 | 0.139 nM and 0.223 nM | 0.00114 s⁻¹ and 0.000909 s⁻¹ | 8.19e+06 M⁻¹ s⁻¹ and 4.07e+06 M⁻¹ s⁻¹ | 0.15 nM | 7.4 fold | 0.00012 s⁻¹ | 780000 M⁻¹ s⁻¹ | 0.101 nM and 0.0675 nM | 6.9e-05 s⁻¹ and 4.05e-05 s⁻¹ | 685000 M⁻¹ s⁻¹ and 600000 M⁻¹ s⁻¹ | 0.13 nM | 233 fold | 0.00046 s⁻¹ | 3.6e+06 M⁻¹ s⁻¹ |  |

Now from value to binder:

| pH 6.0/7.4 KD [1] | pH 6.0/7.4 kd [1] | Kd [2] | koff [2] | kon [2] | Kd [3] | kd improvement vs parent [3] | koff [3] | kon [3] | Kd [4] | koff [4] | kon [4] | Kd [5] | kd improvement vs parent [5] | koff [5] | kon [5] | KD ratio (pH 7.4/pH 6.0) [6] | Binder |
| --- | --- | --- | --- | --- | --- | --- | --- | --- | --- | --- | --- | --- | --- | --- | --- | --- | --- |
|  |  | 55.8 nM | 0.0387 s⁻¹ | 694000 M⁻¹ s⁻¹ |  |  |  |  | 2540 nM | 0.0352 s⁻¹ | 13800 M⁻¹ s⁻¹ |  |  |  |  | 45.5 | P1-065320 (41F11_VH_L96EF100aG VK_A64G) (antibody, V domains shown) VH: QVQLVESGGGLVKPGGSLRLSCAASGFTFSDYYMSWIRQAPGKGLEWVSYISNSGSPIYYADSVKGRFTISRDNAKNSLYLQMNSLRAEDTAVYYCARDEPGWYGDLWGRGTLVTVSS VL: EIVLTQSPATLSLSPGERATLSCRASQSVSSYLAWYQQKPGQAPRLLIYDASNRATGIPARFSGSGSGTDFTLTISSLEPEDFAVYYCQQRNNWPRTFGQGTKVEIK |
|  |  | 0.179 nM | 0.00143 s⁻¹ | 7.99e+06 M⁻¹ s⁻¹ |  |  |  |  | 0.255 nM | 0.000158 s⁻¹ | 618000 M⁻¹ s⁻¹ |  |  |  |  | 1.42 | P1-065325 (41F11_VH_D31E/Y50W/S55E/A60H/Y100E VK_A64G) (antibody, V domains shown, Kabat positions; also called P1-065325-1) VH: QVQLVESGGGLVKPGGSLRLSCAASGFTFSEYYMSWIRQAPGKGLEWVSWISNSGEPIYYHDSVKGRFTISRDNAKNSLYLQMNSLRAEDTAVYYCARDLPGWEFDLWGRGTLVTVSS VL: EIVLTQSPATLSLSPGERATLSCRASQSVSSYLAWYQQKPGQAPRLLIYDASNRATGIPARFSGSGSGTDFTLTISSLEPEDFAVYYCQQRNNWPRTFGQGTKVEIK |
|  |  | 11.9 nM | 0.00791 s⁻¹ | 663000 M⁻¹ s⁻¹ |  |  |  |  | 478 nM | 0.000858 s⁻¹ | 1800 M⁻¹ s⁻¹ |  |  |  |  | 40.2 | P1-065329 (41F11_VH_D31E/S35Y/Y50W/S55E/A60H/Y100E/F100aG VK_A64G) (antibody, V domains shown, Kabat positions; also called P1-065329-1) VH: QVQLVESGGGLVKPGGSLRLSCAASGFTFSEYYMYWIRQAPGKGLEWVSWISNSGEPIYYHDSVKGRFTISRDNAKNSLYLQMNSLRAEDTAVYYCARDLPGWEGDLWGRGTLVTVSS VL: EIVLTQSPATLSLSPGERATLSCRASQSVSSYLAWYQQKPGQAPRLLIYDASNRATGIPARFSGSGSGTDFTLTISSLEPEDFAVYYCQQRNNWPRTFGQGTKVEIK |
|  |  | 0.409 nM | 0.00221 s⁻¹ | 5.41e+06 M⁻¹ s⁻¹ |  |  |  |  | 0.456 nM | 0.000236 s⁻¹ | 517000 M⁻¹ s⁻¹ |  |  |  |  | 1.11 | P1-065332 (41F11_VH_T28P/Y50W/S55E/A60H/Y100E VK_A64G) (antibody, V domains shown, Kabat positions; also called P1-065332-1) VH: QVQLVESGGGLVKPGGSLRLSCAASGFPFSDYYMSWIRQAPGKGLEWVSWISNSGEPIYYHDSVKGRFTISRDNAKNSLYLQMNSLRAEDTAVYYCARDLPGWEFDLWGRGTLVTVSS VL: EIVLTQSPATLSLSPGERATLSCRASQSVSSYLAWYQQKPGQAPRLLIYDASNRATGIPARFSGSGSGTDFTLTISSLEPEDFAVYYCQQRNNWPRTFGQGTKVEIK |
|  |  | 29.1 nM | 0.0385 s⁻¹ | 1.32e+06 M⁻¹ s⁻¹ |  |  |  |  | 24.6 nM | 0.00514 s⁻¹ | 209000 M⁻¹ s⁻¹ |  |  |  |  | 0.85 | P1-065319 (41F11_VH_F100aG VK_A64G) (antibody, V domains shown, Kabat positions; also called P1-065319-1) VH: QVQLVESGGGLVKPGGSLRLSCAASGFTFSDYYMSWIRQAPGKGLEWVSYISNSGSPIYYADSVKGRFTISRDNAKNSLYLQMNSLRAEDTAVYYCARDLPGWYGDLWGRGTLVTVSS VL: EIVLTQSPATLSLSPGERATLSCRASQSVSSYLAWYQQKPGQAPRLLIYDASNRATGIPARFSGSGSGTDFTLTISSLEPEDFAVYYCQQRNNWPRTFGQGTKVEIK |
